Among the data in article PMC4110284 are percent dimer, stoichiometry N and Kd values, retold here.

The target in experiment [1] is mutant IgG4 with Pro222 (human). As to the kind of experiment: AUC; sedimentation velocity, 40,000 rpm, SEDFIT c(s) analysis with integration of the monomer and dimer peaks; IgG4(Ser222) 0.5-8 mg/ml in PBS-50, PBS-137 and PBS-250 in H2O at 20 °C and in PBS-137 in 2H2O at 6, 20 and 30 °C; IgG4(Pro222) 0.5-2.5 mg/ml in PBS-137 in H2O at 20 °C; pH 7.4; dimer to monomers.

The target of experiment [2] is wild-type human-mouse chimera IgG4 B72.3 with Ser222 (human). Described as above.

In experiment [1], mutant IgG4 with Pro222 (antibody) yielded a percent dimer of 2 to 3% and a stoichiometry N of 2.

B1: wild-type human-mouse chimera IgG4 B72.3 with Ser222 (antibody, V domains shown)
VH: QVQLQQSDAELVKPGASVKISCKASGYTFTDHAIHWAKQKPEQGLEWIGYISPGNDDIKYNEKFKGKATLTADKSSSTAYMQLNSLTSEDSAVYFCKRSYYGHWGQGTTLTVSS
VL: DIQMTQSPASLSVSVGETVTITCRASENIYSNLAWYQQKQGKSPQLLVYAATNLADGVPSRFSGSGSGTQYSLKINSLQSEDFGSYYCQHFWGTPYTFGGGTRLEIK
For the molecule B1, in experiment [2], the Kd was in the range of 0.6 to 3 mM, the percent dimer was 1 to 3% and the stoichiometry N is 2.
